Experimental data taken from patent US9371374.
Read-outs that look alike come from different tables or passages of the source.

T1: HCV Core1-169 (HCV-1), P26664
T1 chain: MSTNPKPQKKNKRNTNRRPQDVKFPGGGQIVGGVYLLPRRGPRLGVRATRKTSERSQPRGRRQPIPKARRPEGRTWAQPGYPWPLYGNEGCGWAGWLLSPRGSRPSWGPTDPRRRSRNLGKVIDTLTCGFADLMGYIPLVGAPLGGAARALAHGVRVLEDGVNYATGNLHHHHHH


How the values were obtained:
[1] = target: biotinylated HCV core peptide 134-154 (Peptide 1) (HCV-1); assay: EIA, captured mAb
[2] = target: biotinylated HCV core peptide 141-161 (Peptide 2) (HCV-1); assay: EIA, captured mAb
[3] = target: biotinylated HCV core peptide 151-171 (Peptide 3) (HCV-1); assay: EIA, captured mAb
HCV Core1-169 (HCV-1) [4] = target: HCV Core1-169 (HCV-1) (UniProt P26664); assay: SPR sandwich, C11-3 capture
HCV Core1-169 (HCV-1) [5] = target: HCV Core1-169 (HCV-1) (UniProt P26664); assay: SPR sandwich, C11-7 capture
HCV Core1-169 (HCV-1) [6] = target: HCV Core1-169 (HCV-1) (UniProt P26664); assay: SPR sandwich, C11-9 capture
HCV Core1-169 (HCV-1) [7] = target: HCV Core1-169 (HCV-1) (UniProt P26664); assay: SPR sandwich, C11-14 capture
[8] = target: biotinylated HCV core peptide 134-154 (Peptide 1) (HCV-1); assay: EIA, captured mAb; remark: listed apart in the source
[9] = target: biotinylated HCV core peptide 151-171 (Peptide 3) (HCV-1); assay: EIA, captured mAb; remark: listed apart in the source
HCV Core1-169 (HCV-1) [10] = target: HCV Core1-169 (HCV-1) (UniProt P26664); assay: EIA, coated core1-169
[11] = target: biotinylated HCV core peptide 141-161 (Peptide 2) (HCV-1); assay: EIA, captured mAb; remark: listed apart in the source
[12] = target: T1, HCV Core1-169 (HCV-1), P26664; assay: SPR sandwich, C11-3 capture; conditions: remark: other sources report otherwise
[13] = target: T1, HCV Core1-169 (HCV-1), P26664; assay: SPR sandwich, C11-7 capture; conditions: remark: other sources report otherwise
[14] = target: T1, HCV Core1-169 (HCV-1), P26664; assay: SPR sandwich, C11-9 capture; conditions: remark: other sources report otherwise
[15] = target: T1, HCV Core1-169 (HCV-1), P26664; assay: SPR sandwich, C11-14 capture; conditions: remark: other sources report otherwise

Binder	Reactivity (OD492) [1] [OD]	Reactivity (OD492) [2] [OD]	Reactivity (OD492) [3] [OD]	expected % binding (HCV Core1-169 (HCV-1) [4]) [%]	expected % binding (HCV Core1-169 (HCV-1) [5]) [%]	expected % binding (HCV Core1-169 (HCV-1) [6]) [%]	expected % binding (HCV Core1-169 (HCV-1) [7]) [%]	Reactivity (OD492) [8] [OD]	Reactivity (OD492) [9] [OD]	OD (A492) (HCV Core1-169 (HCV-1) [10]) [OD]	Reactivity (OD492) [11] [OD]	expected % binding [12] [%]	expected % binding [13] [%]	expected % binding [14] [%]	expected % binding [15] [%]
HCV 208A-967 (antibody, V domains shown) VH: QVQLEESGPGLVAPSQSLSITCTVSGFSLTSYGVHWVRQPPGKGLEWLGVIWAVGSINYNSALMSRLSISKDNSKSQVFLKMNSLRTDDTAMYYCARDRTTATPFFDYWGQGTTLTVSS VL: DIVLTQSPASLAGSLGKRAPISCKASESVNFFGTNLIHWYQQKPGQPPKLLIYHASNLKTGVPARFRGRGSKTNFPLPIDPVEENDVAIYYCLQNRKIPLTFGVGTKLELKR	0.52	0.73	0.18	< 1	< 1	< 1	< 1								
HCV 208A-692 (antibody, V domains shown) VH: QGQMQQSGAELAKPGASVKLSCKTSGFTFSSSYISWLKQKPGQSLEWIAWIFAGTGNTNYNQKFTDKAQLTVDTSSSTAYMQLSSLTTEDSAIYYCAISGTGFTYWGQGTLVTVSA VL: EVLMTQSPLSLPVSLGDQASISCRSSQSLEHSNGNTYLEWFLQRPGQPPKLLIYKVSSRFSGVPDRFSGSGSGTDFTLKISRVEAEDLGVYYCFQGSHVPFTFGSGTKLAIKR		0.38						3.67	0.07						
HCV 208B-353 (antibody, V domains shown) VH: EVQLVESGGDLVKPGGSLKLSCAASGFTFNHYGMSWVRQPPDKRLEWVATISSGGGYTYYPDSVKGRFTISRDNAKDTLSLQMSSLRSGDTAVYYCASLYGSLFAYWGQGTLVTVSA VL: DIVMTQSQKFMSTTVGDRVRVTCKASQNVGTAVAWYQQKPGQSPKLLIYSASNRYTGVPDRFTGSGSGTDFTLTITNMQSEDLADYFCQQYSTYPLTFGSGAKLEIKR				1.9	2.6	< 1	2.4	0.07	0.07	0.3	2.47				
HCV 208B-471 (antibody, V domains shown) VH: QGQLQQSGPVLVKPGASEILYCKTSGFTFSSTYISWLKQKPGQSLEWIAWIYAGTGATNYNQKFTGKAQLTVDASSNTAYMHFSGLTPEDSAIYYCAISGAGVYWGQGTLVTVSA VL: DVVMTQTPLSLPVSLGDQASISCRSSQSLLHSNGNTYLEWYLQKPGQSPNLLIYNVSNRFSGVPDRFSGSGSGTDFALKISRVGAEDLGVYYCFQGSHVPLTFGAGTKLELKR								1.62	0.08		0.11	< 1	< 1	< 1	< 1
